Laboratory results: PMC12574954 (2025)

T1: thermolysin-generated VSV Gect (aa residues 1-422) (Vesicular stomatitis virus, UniProt P0C2X0 17-438)
T1 chain: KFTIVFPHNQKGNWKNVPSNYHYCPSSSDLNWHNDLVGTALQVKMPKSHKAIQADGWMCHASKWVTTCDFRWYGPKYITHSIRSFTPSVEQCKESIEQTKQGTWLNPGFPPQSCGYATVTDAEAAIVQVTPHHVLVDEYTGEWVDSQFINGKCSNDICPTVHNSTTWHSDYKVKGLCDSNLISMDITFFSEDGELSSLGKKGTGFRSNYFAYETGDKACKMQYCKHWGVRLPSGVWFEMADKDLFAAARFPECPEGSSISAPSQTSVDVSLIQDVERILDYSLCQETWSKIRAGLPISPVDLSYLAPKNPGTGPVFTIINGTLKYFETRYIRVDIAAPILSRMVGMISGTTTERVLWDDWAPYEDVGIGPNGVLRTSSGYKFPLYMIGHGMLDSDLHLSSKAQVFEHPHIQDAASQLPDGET


Molecular target: T1, thermolysin-generated VSV Gect (aa …)
Test: BLI

Binder | Kd [pM]
recombinant Fab 8G5F11 (Fab, V domains shown) VH: DVQLQESGPDLVKPSQSLSLTCTVTGYSITSGYSWHWNRQFPGNKLEWMGYIHYSGLTNYNPSLKSRISITRHTSKNQFFLQLNSVTTEDTATYYCVRGGYDGRDYYAMDFWGQGTSVTVSS VL: DIVMTQSHKFMSTSVGDRVSITCKASQDVDNDVAWYQQKPGQSPKLLIYWASTRHTGVPDRFTGSGSGTDFTLTISDVQSEDLSDYFCQQYSSYPFTFGGGTRLEIK | 720
monoclonal antibody 8G5F11 (antibody, V domains shown) VH: DVQLQESGPDLVKPSQSLSLTCTVTGYSITSGYSWHWNRQFPGNKLEWMGYIHYSGLTNYNPSLKSRISITRHTSKNQFFLQLNSVTTEDTATYYCVRGGYDGRDYYAMDFWGQGTSVTVSS VL: DIVMTQSHKFMSTSVGDRVSITCKASQDVDNDVAWYQQKPGQSPKLLIYWASTRHTGVPDRFTGSGSGTDFTLTISDVQSEDLSDYFCQQYSSYPFTFGGGTRLEIK | 1010
